The values that follow come from patent US7888291B2, “Substrates and assays for β-secretase” (Elan Pharmaceuticals, Inc., priority 2000, dated 2011).

Test [1] deals with T1, Hu-Asp2 (Homo sapiens, UniProt P56817).
T1 construct: made in house; host or cells: High Five insect cells
Put plainly: Hu-Asp2 peptide substrate cleavage assay (HPLC quantitation of cleavage products). Also noted: key to Activity: Those substrates that were not cleaved by the Hu-Asp2 are indicated by a “−” sign; substrates that produced activity are indicated by “+” signs in which the greater the activity, the more + signs are provided; ++: substrates that produced activity are indicated by “+” signs in which the greater the activity, the more + signs are provided; ++++: substrates that produced activity are indicated by “+” signs in which the greater the activity, the more + signs are provided. The conditions noted are these: for Activity: 200 μM test substrate, 210 nM Hu-Asp2 enzyme, pH 4.5, 37° C., 3 hours. In kind it is biochemical. The method, then: The peptides listed in Table 2 were designed, synthesized, and tested for activity as substrates for Hu-Asp2. 200 μM of each test substrate was incubated with 210 nM Hu-Asp2 enzyme at pH 4.5 at 37° C. for 3 hours. Of course it should be understood that these are merely exemplary assay conditions, and those of skill in the art will be able to vary these conditions and yet still provide appropriate Hu-Asp2 activity. For example, it is envisioned that the assays may be conducted at a pH range of from between about 4.0 to about 7.0. The amount of enzyme added to a given reaction mixture may also be varied and those of skill in the art will be able to perform assays defining the optimal enzyme concentrations necessary for a given assay, as such 150 nm; 200 nm; 250 nm; 300 nm or more or less enzyme may be added. Substrate concentration in those also may be varied such that an assay may use 100, 150 μM, 200 μM, 250 μM, 300 μM, 350 μM or more or less of any given; substrate. It may be that one substrate produces an optimum activity at one concentration whereas another substrate is needed to be present at a different concentration to produce an optimum cleavage rate. However, such optimizations of enzyme assay conditions is well within the skill of those in the art and will not require undue experimentation.
In an exemplary assay to determine the cleavage of the substrates of the present invention, Asp2 was prepared from High Five™ insect cells. Generally, the assasy are run in solution at acidic pH (4.0 to 5.0), at 25-37° C. in the presence of nM or sub-nanomolar enzyme. After a suitable period of incubation the reaction is stopped at a desired time by addition of 4% trifluoracetic acid (TFA). Substrates and products are separated using reverse phase HPLC. The disappearance of the substrates and the appearance of the products are monitored by continuous measurement of the absorbance of the effluent at […]. Furthermore, if the peptide comprises a tryptophan residue, the monitoring may additionally or alternatively involve continuous monitoring of fluorescence of tryptophan fluorescence (excitation at 280 nm, emission at […]) of the effluent.
In a typical assay, 210 nM enzyme and 200 μM substrate were incubated in 0.2 M sodium acetate at pH 4.5 in 100 μl volume at 37° C. for 1 to 3 hours. The assay was stopped by the addition of 50 μl 4% TFA to lower the pH below the active range of the enzyme. Subsequently, 100 μl of this mixture was injected into a Hewlett Packard Model 1090 HPLC equipped with a Vydac column (4.6 mm i.d.×150 mm, 5 μm) pre-equilibrated with 95% A (0.15% TFA in water), 5% B (0.15% TFA in acetonitrile). The constituents were then eluted from the column with the following linear gradients: 0-15 min: 5-50% B; 15-17 min: 50-100% B; 17-20 min: 100-5% B; 20-22 min: 5% B). The cleavage products were then quantitated using an enhanced integrator. […]

Test [2] concerns the target T1, Hu-Asp2. The test is described as above. In kind it is biochemical. The note with it: for activity / rate of hydrolysis by Asp2 over wild type peptide (SEQ ID NO:20): Tables 3 and 4.
The mark [3] stands for this setting: Table 5, 2 nM enzyme, 50 μM substrate, 25 mM Sodium acetate, pH 4.4, 37° C., 2 hr.
The mark [4] stands for this setting: Table 5, 2 nM enzyme, 50 μM substrate, 25 mM Sodium acetate, pH 4.4, 37° C., 2 hr, SEQ ID NO:141 = 100.
[5] abbreviates: Table 3, 200 nM enzyme, 200 μM substrate, 300 mM Na-acetate, 4% DMSO, pH 4.5, 37° C., 4 hr, APP-Sw = 100.
Where [6] appears, read: Table 4, 200 nM enzyme, 200 μM substrate, pH 4.5, 37° C., 1 hr, SEQ ID NO:19 = 100.

“Also recorded” adds a separate entry of the source. Marks after values point to notes of the source that are not given here. Non-standard residues stand in square brackets, D forms with d. No end group written: not given here. Nle = CCCC[C@H](N)C(=O)O; SO3‑ = not defined here

T1 sequence (P56817 46-501): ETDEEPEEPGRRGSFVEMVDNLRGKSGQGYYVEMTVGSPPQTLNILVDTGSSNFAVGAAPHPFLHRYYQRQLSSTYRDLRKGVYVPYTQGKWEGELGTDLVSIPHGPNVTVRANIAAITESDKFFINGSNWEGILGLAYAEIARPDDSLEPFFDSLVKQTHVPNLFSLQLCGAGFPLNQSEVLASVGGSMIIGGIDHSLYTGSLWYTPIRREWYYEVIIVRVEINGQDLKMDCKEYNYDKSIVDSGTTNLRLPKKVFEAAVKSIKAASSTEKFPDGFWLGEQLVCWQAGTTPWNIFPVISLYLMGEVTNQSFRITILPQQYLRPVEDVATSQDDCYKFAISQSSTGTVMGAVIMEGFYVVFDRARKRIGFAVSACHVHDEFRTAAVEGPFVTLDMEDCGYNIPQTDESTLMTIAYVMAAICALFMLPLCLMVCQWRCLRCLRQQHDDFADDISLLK

As to Biotin-KVEANY-EVEGERC(oregon green)KK, the cleavage site entry on Hu-Asp2 [1] is “between Tyr and Glu only”. The “Vmax and Km compared with a previous biotinylated fluorescent substrate derived from the Swedish Mutant peptide” value at Hu-Asp2 [2] was “at least twice better; also recorded: at least double”. Besides, the “cleavage after 15 minutes” value at Hu-Asp2 [2] (200 mM sodium acetate, pH 4.5, 10 μM substrate, 50 nM enzyme, 37° C., 15 minutes) was 20%. The “cleavage after 30 minutes” value on Hu-Asp2 [2] (200 mM sodium acetate, pH 4.5, 10 μM substrate, 50 nM enzyme, 37° C., 30 minutes) is recorded as 37%. Moreover, the “cleavage after 60 minutes” value at Hu-Asp2 [2] (200 mM sodium acetate, pH 4.5, 10 μM substrate, 50 nM enzyme, 37° C., 60 minutes) was 57%. The “cleavage after 120 minutes” value on Hu-Asp2 [2] (200 mM sodium acetate, pH 4.5, 10 μM substrate, 50 nM enzyme, 37° C., 120 minutes) came to 82%.
Take KTEEISEVSY-EVEFR (KTEEISEVSYEVEFR): the “rate of cleavage / activity over SEVSY-EVEFR (SEQ ID NO:141)” value with Hu-Asp2 [2] turned out to be 3.6 fold. Further, the “Cleavage Activity” value with Hu-Asp2 [2] (setting [3]) was determined as 0.58 µmol/min/mg. In the test with Hu-Asp2 [2] (setting [4]), the “Relative rate of Cleavage” value was 360.
Take KTINL-↓-EVEPS (KTINLEVEPS) [Peptide 2]: in the test with Hu-Asp2 [1], the “activity as substrate of Hu-Asp2 (in words)” value (from here on “activity as substrate”) is “activity similar to that of the Swedish mutant”. Also, the “Relative rate of Cleavage” value in the test with Hu-Asp2 [2] (setting [5]) was found to be 92.0.
On to “KTINnle-↓-DVDPS (KTIN[Nle]DVDPS) [Peptide 5]”, for which, in the test with Hu-Asp2 [2] (Table 3), the “reduction of activity compared with peptide #3 (SEQ ID NO:134)” value is “about 10 fold”. Moreover, the “Relative rate of Cleavage” value with Hu-Asp2 [2] (setting [5]) came out at 12.2.
With “KTINnle-↓-EVDPS (KTIN[Nle]EVDPS) [Peptide 4]”, the “activity as substrate” value with Hu-Asp2 [1] was “very well tolerated”. Besides, the “Relative rate of Cleavage” value with Hu-Asp2 [2] (setting [5]) stood at 93.6.
Regarding “KTINnle-↓-EVEPS (KTIN[Nle]EVEPS) [Peptide 3]”, the “activity as substrate” value in the test with Hu-Asp2 [1] was “activity similar to that of the Swedish mutation”. For the same substance, in the test with Hu-Asp2 [2] (setting [5]), the “Relative rate of Cleavage” value is given as 92.6.
As for KTISL- ↓-DVDPS (KTISLDVDPS) [Peptide 7], the “activity as substrate” value with Hu-Asp2 [1] was “activity dropped substantially”. In addition, the “Relative rate of Cleavage” value in the test with Hu-Asp2 [2] (setting [5]) came to 20.5.
Turning to KTISL- ↓-DVEPS (KTISLDVEPS) [Peptide 6], the “activity as percentage of the Swedish mutation peptide (SEQ ID NO:19)” value with Hu-Asp2 [2] (Table 3) is listed as 69%. Moreover, the “Relative rate of Cleavage” value with Hu-Asp2 [2] (setting [5]) is recorded as 69.0. Also, the “activity / rate of hydrolysis by Asp2 over wild type peptide (SEQ ID NO:20)” value in the test with Hu-Asp2 [2] was “about 35 fold”.
On the same counts, the results for “KTITL-↓-EVEPS (KTITLEVEPS) [Ubiquitin (Pep 1)]” are “about 13%”, 13.1 and “six times better than wild type peptide”.
For KVEALY-AVEGERKK (KVEALYAVEGERKK), the Activity result with Hu-Asp2 [1] is “+”.
On the same count and under the same terms, the entry for “KVEALY-LV(SO3-)GER (KVEALYLV[SO3‑]GER; reading uncertain; also: sulfonated residue, parent residue not given here, printed as KVEALY-LV(SO3-)GER)” is “−”; for KVEANL-AVEGERKK (KVEANLAVEGERKK) it is “+”; for KVEANY-AVEGERKK (KVEANYAVEGERKK) it is “++++”.
As to KVEANY-DVEGERKK (KVEANYDVEGERKK), the Activity entry with Hu-Asp2 [1] was “+”.
As for KVEANY-EVEGERCKK (KVEANYEVEGERCKK), the “activity as substrate” value with Hu-Asp2 [1] is “good substrate for Hu-Asp2”.
In the case of KVEANY-EVEGERKK (KVEANYEVEGERKK), in the test with Hu-Asp2 [1], the “activity as substrate” value is listed as “good substrate for Hu-Asp” and the Activity result is “++++”.
With KVEANY-LVEGERKK (KVEANYLVEGERKK), the Activity result with Hu-Asp2 [1] is listed as “+”.
For the substance SEIDY-EVEFR (SEIDYEVEFR), the “Cleavage Activity” value in the test with Hu-Asp2 [2] (setting [3]) was 0.69 µmol/min/mg. The “Relative rate of Cleavage” value with Hu-Asp2 [2] (setting [4]) is 430.
Regarding SEISY-EVEFR (SEISYEVEFR), in the test with Hu-Asp2 [2], the “rate of cleavage / activity over SEVSY-EVEFR (SEQ ID NO:141)” value came to 5 fold. In the test with Hu-Asp2 [2] (setting [3]), the “Cleavage Activity” value is 0.80 µmol/min/mg. Also, the “Relative rate of Cleavage” value with Hu-Asp2 [2] (setting [4]) amounted to 500.
On to SEVDY-EVEFR (SEVDYEVEFR), for which the “Cleavage Activity” value in the test with Hu-Asp2 [2] (setting [3]) was 0.38 µmol/min/mg. The “Relative rate of Cleavage” value with Hu-Asp2 [2] (setting [4]) is 240.
As to “SEVKM-DAEFR (SEVKMDAEFR) [APP-Wildtype, reference compound]”, the “Relative rate of Cleavage” value with Hu-Asp2 [2] (Table 3, 200 nM enzyme, 200 μM substrate, 300 mM Na-acetate, 4% DMSO, pH 4.5, 37° C., 24 hr reaction) is on record as 2.1*; in the test with Hu-Asp2 [2] (Table 4, 200 nM enzyme, 200 μM substrate, pH 4.5, 37° C., 24 hr reaction) it was 2.1*.
For the substance “SEVNL-DAEFR (SEVNLDAEFR) [APP-Sw, reference compound]”, the “Relative rate of Cleavage” value was determined as 100 with Hu-Asp2 [2] (setting [5]) and 100.0 with Hu-Asp2 [2] (setting [6]).
As to SEVNY-↓-EVEFR (SEVNYEVEFR), the “activity as fraction of that of SEVSY-EVEFR (SEQ ID NO:141)” value with Hu-Asp2 [2] (peptide activity assays) is “⅕”.
SEVSY-↓-DAEFR (SEVSYDAEFR): the “activity compared with Swedish mutant peptide (SEQ ID NO:19)” value with Hu-Asp2 [2] (Table 4) was “about five times less than that of the Swedish mutation”. Besides, in the test with Hu-Asp2 [2] (setting [6]), the “Relative rate of Cleavage” value is given as 18.3. Besides, in the test with Hu-Asp2 [2], the “activity / rate of hydrolysis by Asp2 over wild type peptide (SEQ ID NO:20)” value was “about 9 fold”.
On to SEVSY-↓-EAEFR (SEVSYEAEFR), for which the “activity as substrate” value with Hu-Asp2 [1] was “activity comparable to the Swedish mutation; also recorded: activity comparable to that of the Swedish mutant”. In addition, in the test with Hu-Asp2 [2] (setting [6]), the “Relative rate of Cleavage” value came to 77.1.
In the case of TEIDY-EVEFR (TEIDYEVEFR), the “Cleavage Activity” value with Hu-Asp2 [2] (setting [3]) stood at 0.62 µmol/min/mg. In addition, the “Relative rate of Cleavage” value with Hu-Asp2 [2] (setting [4]) turned out to be 390.
As for TEVDY-EVEFR (TEVDYEVEFR), the “Cleavage Activity” value with Hu-Asp2 [2] (setting [3]) was determined as 0.37 µmol/min/mg. The “Relative rate of Cleavage” value in the test with Hu-Asp2 [2] (setting [4]) amounted to 230.
Take TEVSY-EVEFR (TEVSYEVEFR): the “Cleavage Activity” value with Hu-Asp2 [2] (setting [3]) came out at 0.27 µmol/min/mg. Besides, the “Relative rate of Cleavage” value with Hu-Asp2 [2] (setting [4]) stood at 160.
With “TRPGSGLTNIKTEEISEVSY-EVEFR (TRPGSGLTNIKTEEISEVSYEVEFR)”, the “rate of cleavage / activity over SEVSY-EVEFR (SEQ ID NO:141)” value in the test with Hu-Asp2 [2] turned out to be 8.4 fold. The “Cleavage Activity” value with Hu-Asp2 [2] (setting [3]) was determined as 1.35 µmol/min/mg. The “Relative rate of Cleavage” value with Hu-Asp2 [2] (setting [4]) is recorded as 840.
Regarding VEALY-LVEGER (VEALYLVEGER), the “activity as substrate” value in the test with Hu-Asp2 [1] is listed as “found to be cleaved by the Hu-Asp2”.
On to WRRVEALY-LVEGERK (WRRVEALYLVEGERK), for which the Activity entry in the test with Hu-Asp2 [1] is given as “++”.
